From article PMC4159047 (Science signaling, 2014)

Experiments:
type IV collagen [1] = test: SPR
type IV collagen [2] = target: type IV collagen (biotin (Pierce EZ-link biotinylation kit) in the pull-downs); test: SPR

| Molecule | Kd (type IV collagen [1]) | koff (type IV collagen [1]) | kon (type IV collagen [1]) | Kd (type IV collagen [2]) | koff (type IV collagen [2]) | kon (type IV collagen [2]) |
| --- | --- | --- | --- | --- | --- | --- |
| Gpr126-NT-Fc (secreted, Fc-tagged protein containing the N-terminal fragment of zebrafish Gpr126) (Fc fusion) | 1.3 nM | 0.000404 s⁻¹ | 306000 M⁻¹ s⁻¹ |  |  |  |
| CUBPTX-Fc (signal peptide, CUB domain and PTX domain of Gpr126 followed by an Fc tag) (Fc fusion, zebrafish, UniProt C6KFA3 41-336, looked up) CNVVLTDSQGSFTSPCYPNDYPPSQSCNWTIQAPAGFIVQITFLDFELEEAQGCIYDRVVVKTGTSDAKFCGLTANGLTLNSTGNVMEVFFNSDFSVQKKGFHISYKQVAVTLRNQKVTMPKSSKTILRVSNSISIPVLTAFTVCFEIARTAQKATETIFTLSDAAGTSILAFEKTSNGMELFIGASYCSVDNLLTSSDITATMKPLCLTWTKSSGLIGVYFGGHYFSSICSASQIYTLQSGGLLQIAGKGSSSVSVDDQNLDGFIYNFRLWDHAMLSSELSALTCDTVGNVVDWD |  |  |  | 1.2 nM | 0.00333 s⁻¹ | 2.78e+06 M⁻¹ s⁻¹ |
